These results are taken from paper doi:10.1101/2021.12.16.473085 (2021).

Some targets named below: hGH K41R; hGH E65Y; hGH Q46R; hGH R178Y; hGH R178F; hGH Q22H; hGH S51D.
Test in all cases: SPR
In general terms: Surface plasmon resonance follows binding to a sensor surface in real time, without labels.

B1: human Growth Hormone Receptor (hGHR) (receptor)
chain: FSGSEATAAILSRAPWSLQSVNPGLKTNSSKEPKFTKCRSPERETFSCHWTDEVHHGTKNLGPIQLFYTRRNTQEWTQEWKECPDYVSAGENSCYFNSSFTSIWIPYCIKLTSNGGTVDEKCFSVDEIVQPDPPIALNWTLLNVSLTGIHADIQVRWEAPRNADIQKGWMVLEYELQYKEVNETKWKMMDPILTTSVPVYSLKVDKEYEVRVRSKQRNSGNYGEFSEVLYVTLPQMSQFTCEEDFYFPWLLIIIFGIFGLTVMLFVFLFSKQQRIKMLILPPVPVPKIKGIDPDLLKEGKLEEVNTILAIHDSYKPEFHSDDSWVEFIELDIDEPDEKTEESDTDRLLSSDHEKSHSNLGVKDGDSGRTSCCEPDILETDFNANDIHEGTSEVAQPQRLKGEADLLCLDQKNQNNSPYHDACPATQQPSVIQAEKNKPQPLPTEGAESTHQAAHIQLSNPSSLSNIDFYAQVSDITPAGSVVLSPGQKNKAGMSQCDMHPEMVSLCQENFLMDNAYFCEADAKKCIPVAPHIKVESHIQPSLNQEDIYITTESLTTAAGRPGTGEHVPGSEMPVPDYTSIHIVQSPQGLILNATALPLPDKEFLSSCGYVSTDQLNKIMP
With B1, the Kd came out at 20 nM with hGH K41R; 0.4 nM with hGH E65Y; 40 nM in the experiment with hGH Q46R; 20 nM with hGH R178Y; 30 nM with hGH R178F; 8 nM with hGH Q22H. Besides, binding with hGH S51D was put at a Kd of 0.6 nM. Besides, the koff in the experiment with hGH K41R came out at 0.001 s⁻¹; with hGH E65Y it was 0.0003 s⁻¹; with hGH Q46R, 0.0006 s⁻¹; with hGH R178Y, 0.006 s⁻¹; with hGH R178F, 0.008 s⁻¹; in the experiment with hGH Q22H, 0.0004 s⁻¹. The dissociation rate constant (koff) with hGH S51D came out at 0.0007 s⁻¹.

For orientation: Kd means the constant that tells how readily two partners part at equilibrium. A low value points to higher affinity. Usually koff stands for a measure of how fast the partners let go of each other. A high value points to a short-lived complex.
